“And” between values parts separate entries of the source, which are not always exact repeats. Equal values may be shown once.
B1: R12.06 (5'-amino-C6) (ssDNA)
DNA: TGTACCGTCTGAGCGATTCGTACGATTACTATAATTTCCTATCGTCCGACCGCCGTCAGCCAGTCAGTGTTAAGGAGTGC
modifications: 5' amino-C6
B2: R12.06 (FAM) (ssDNA)
DNA: B1 DNA

Columns and labels:
[1] = biological target: T1, alpha toxin (alpha-hemolysin) (Staphylococcus aureus, UniProt P09616 27-319); assay: SPR; […] (pH not stated); SPR temperature not stated; […]; conditions: protein: commercial; stem-loop (Mfold)
T1 sequence (P09616 27-319): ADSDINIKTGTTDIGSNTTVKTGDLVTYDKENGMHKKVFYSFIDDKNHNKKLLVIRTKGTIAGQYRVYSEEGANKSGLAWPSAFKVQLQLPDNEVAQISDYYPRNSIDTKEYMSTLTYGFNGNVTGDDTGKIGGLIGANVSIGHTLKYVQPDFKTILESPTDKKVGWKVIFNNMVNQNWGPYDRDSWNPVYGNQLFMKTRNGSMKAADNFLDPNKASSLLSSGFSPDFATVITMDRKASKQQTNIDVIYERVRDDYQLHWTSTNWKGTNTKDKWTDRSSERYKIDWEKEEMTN

[2] = biological target: T1, alpha toxin (alpha-hemolysin); assay: SPR; assay 1; […] (pH not stated); SPR temperature not stated; […]; conditions: protein: commercial; stem-loop (Mfold)
[3] = biological target: T1, alpha toxin (alpha-hemolysin); assay: SPR; assay 2; […] (pH not stated); SPR temperature not stated; […]; conditions: protein: commercial; stem-loop (Mfold)
[4] = biological target: exotoxin A (UniProt P11439 26-638); assay: fluorescence plate binding; p = 0.004; […] (pH not stated); SPR temperature not stated; […]; conditions: protein: commercial; stem-loop (Mfold)
Sequence of exotoxin A (P11439 26-638): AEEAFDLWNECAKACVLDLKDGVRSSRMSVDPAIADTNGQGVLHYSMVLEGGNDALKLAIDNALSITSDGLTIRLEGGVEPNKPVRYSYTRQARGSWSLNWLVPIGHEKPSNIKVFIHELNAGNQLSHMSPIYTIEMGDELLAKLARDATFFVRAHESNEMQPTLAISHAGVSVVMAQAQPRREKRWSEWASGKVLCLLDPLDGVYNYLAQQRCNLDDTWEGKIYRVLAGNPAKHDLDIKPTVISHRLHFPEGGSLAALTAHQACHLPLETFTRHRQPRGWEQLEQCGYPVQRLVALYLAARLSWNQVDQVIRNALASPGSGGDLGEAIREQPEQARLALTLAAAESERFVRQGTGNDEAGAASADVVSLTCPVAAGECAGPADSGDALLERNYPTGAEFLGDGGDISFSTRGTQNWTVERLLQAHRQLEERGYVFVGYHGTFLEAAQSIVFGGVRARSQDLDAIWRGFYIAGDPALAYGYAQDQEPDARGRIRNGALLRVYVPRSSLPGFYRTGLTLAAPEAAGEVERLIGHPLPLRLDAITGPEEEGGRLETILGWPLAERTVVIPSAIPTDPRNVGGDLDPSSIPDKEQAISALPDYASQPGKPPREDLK

[5] = biological target: toxin B (UniProt P18177 2-2366); assay: […] (pH not stated); SPR temperature not stated; […]; conditions: protein: commercial; stem-loop (Mfold)
Sequence of toxin B (P18177 2-2366): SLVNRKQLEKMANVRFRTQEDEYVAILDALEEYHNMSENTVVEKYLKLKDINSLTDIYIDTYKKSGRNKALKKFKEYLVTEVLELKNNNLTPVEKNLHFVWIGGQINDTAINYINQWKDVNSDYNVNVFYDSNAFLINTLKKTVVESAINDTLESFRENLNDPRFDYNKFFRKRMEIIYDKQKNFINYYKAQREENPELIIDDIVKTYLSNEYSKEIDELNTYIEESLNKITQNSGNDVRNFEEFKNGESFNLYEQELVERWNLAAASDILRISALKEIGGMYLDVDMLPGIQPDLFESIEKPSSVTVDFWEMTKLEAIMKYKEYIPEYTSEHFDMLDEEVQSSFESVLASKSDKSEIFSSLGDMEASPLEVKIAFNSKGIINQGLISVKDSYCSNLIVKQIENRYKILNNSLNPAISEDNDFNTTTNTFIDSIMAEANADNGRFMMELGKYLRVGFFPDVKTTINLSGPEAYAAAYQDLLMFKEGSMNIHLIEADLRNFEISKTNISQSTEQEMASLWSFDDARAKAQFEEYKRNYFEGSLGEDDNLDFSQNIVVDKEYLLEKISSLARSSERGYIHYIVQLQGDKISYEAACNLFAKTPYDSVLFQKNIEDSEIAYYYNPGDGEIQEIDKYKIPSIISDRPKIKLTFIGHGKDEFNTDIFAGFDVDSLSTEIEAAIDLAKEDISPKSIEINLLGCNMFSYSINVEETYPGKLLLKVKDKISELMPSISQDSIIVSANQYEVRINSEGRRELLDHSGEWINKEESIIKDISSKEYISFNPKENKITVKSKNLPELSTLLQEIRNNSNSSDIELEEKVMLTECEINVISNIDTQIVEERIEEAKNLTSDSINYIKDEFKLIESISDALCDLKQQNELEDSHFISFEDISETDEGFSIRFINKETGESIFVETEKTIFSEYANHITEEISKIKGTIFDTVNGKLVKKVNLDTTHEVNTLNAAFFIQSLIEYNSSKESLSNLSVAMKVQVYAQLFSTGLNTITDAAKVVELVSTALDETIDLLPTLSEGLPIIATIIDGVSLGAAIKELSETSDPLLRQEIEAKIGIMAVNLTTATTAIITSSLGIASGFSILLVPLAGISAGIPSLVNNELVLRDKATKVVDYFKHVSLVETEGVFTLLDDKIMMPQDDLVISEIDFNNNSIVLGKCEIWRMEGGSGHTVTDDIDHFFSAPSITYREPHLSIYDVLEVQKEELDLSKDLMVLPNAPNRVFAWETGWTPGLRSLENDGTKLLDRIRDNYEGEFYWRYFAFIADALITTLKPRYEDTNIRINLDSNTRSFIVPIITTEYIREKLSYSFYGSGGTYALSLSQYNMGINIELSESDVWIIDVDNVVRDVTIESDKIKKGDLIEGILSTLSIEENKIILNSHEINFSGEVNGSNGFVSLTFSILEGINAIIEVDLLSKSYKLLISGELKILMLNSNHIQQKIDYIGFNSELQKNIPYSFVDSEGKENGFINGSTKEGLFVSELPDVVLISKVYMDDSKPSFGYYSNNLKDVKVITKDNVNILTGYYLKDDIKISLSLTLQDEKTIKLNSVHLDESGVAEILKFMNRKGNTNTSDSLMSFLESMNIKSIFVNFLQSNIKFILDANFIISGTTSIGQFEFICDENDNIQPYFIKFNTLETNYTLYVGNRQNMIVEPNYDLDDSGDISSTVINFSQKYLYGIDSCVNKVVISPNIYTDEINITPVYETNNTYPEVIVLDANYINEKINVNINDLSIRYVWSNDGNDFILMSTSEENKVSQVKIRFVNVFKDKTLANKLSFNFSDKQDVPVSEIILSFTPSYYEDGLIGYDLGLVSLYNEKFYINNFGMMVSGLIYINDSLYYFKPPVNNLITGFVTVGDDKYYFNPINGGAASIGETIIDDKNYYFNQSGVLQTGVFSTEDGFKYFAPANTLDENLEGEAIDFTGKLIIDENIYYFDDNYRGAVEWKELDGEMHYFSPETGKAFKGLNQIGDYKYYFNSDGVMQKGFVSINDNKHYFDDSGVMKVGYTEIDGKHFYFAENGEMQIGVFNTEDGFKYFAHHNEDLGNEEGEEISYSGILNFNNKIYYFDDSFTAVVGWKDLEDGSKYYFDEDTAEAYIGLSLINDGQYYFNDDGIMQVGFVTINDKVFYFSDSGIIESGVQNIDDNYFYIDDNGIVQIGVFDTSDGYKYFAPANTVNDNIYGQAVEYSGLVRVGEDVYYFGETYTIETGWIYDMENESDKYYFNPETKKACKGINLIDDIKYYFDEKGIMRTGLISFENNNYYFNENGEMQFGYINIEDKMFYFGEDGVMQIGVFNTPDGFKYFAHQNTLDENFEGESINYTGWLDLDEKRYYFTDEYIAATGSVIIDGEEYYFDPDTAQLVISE

[6] = biological target: cholera toxin (UniProt P01555;P01556 19-258;22-124); assay: as above; conditions: protein: commercial; copies: 1;5; stem-loop (Mfold)
Sequence of cholera toxin (P01555 19-258, chain 1 of 2): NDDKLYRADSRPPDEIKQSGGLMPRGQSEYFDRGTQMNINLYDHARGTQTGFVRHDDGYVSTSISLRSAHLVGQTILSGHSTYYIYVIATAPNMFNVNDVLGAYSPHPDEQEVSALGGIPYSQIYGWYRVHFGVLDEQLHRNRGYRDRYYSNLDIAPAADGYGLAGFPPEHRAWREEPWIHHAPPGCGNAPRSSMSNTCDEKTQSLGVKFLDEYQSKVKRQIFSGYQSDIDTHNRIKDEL
Sequence of cholera toxin (P01556 22-124, chain 2 of 2): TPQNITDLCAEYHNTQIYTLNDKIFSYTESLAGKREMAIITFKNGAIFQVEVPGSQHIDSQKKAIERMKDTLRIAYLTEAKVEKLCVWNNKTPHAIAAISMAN

[7] = biological target: T1, alpha toxin (alpha-hemolysin); assay: as above; conditions: protein: commercial; stem-loop (Mfold)

Binder | Kd [1] | Kd [2] | Kd [3] | binding signal [4] | binding signal [5] | binding signal [6] | binding signal [7]
B1 | 93.7 nM and 90.7 nM | 102 nM | 88.7 nM | – | – | – | –
B2 | – | – | – | 1.5 fold lower than alpha toxin | 5 fold lower than alpha toxin | 1.5 fold lower than alpha toxin | 1 relative to alpha toxin
